We go through 2 molecules from patent US20090286962A1 (published 2009).

This experiment concerns the target T1, TNF (UniProt P01375 77-233).
T1 construct: also called TNF-α; Tumor Necrosis Factor-α
Kind of experiment: ELISA on solid-phase TNF (screen of the affinity maturation libraries).

Changes are numbered by the printed parent chain.

T1 sequence (P01375 77-233 limits assumed): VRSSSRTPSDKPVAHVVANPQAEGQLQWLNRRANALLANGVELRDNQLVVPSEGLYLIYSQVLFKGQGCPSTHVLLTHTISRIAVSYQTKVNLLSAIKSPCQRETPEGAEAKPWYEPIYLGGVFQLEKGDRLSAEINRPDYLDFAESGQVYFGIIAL

B1: Compound 100 (other)
VL: DIQMTQSPSSLSASVGDRVTITCRASQSIDSYLHWYQQKPGKAPKLLIYSASNLETGVPSRFSGSGSGTDFTLTISSLLPEDFATYYCQQVVWRPFTFGQGTKVEIKR
notes: Domain antibody (dAb); also called anti-TNF dAb Compound 100
B1: the binding result is listed as “binds”.

B2: Compound 123 (other)
VL: B1 VL with S28A, L79Q
notes: Domain antibody (dAb)
For the molecule B2, the binding result is on record as “binds”.
